{"source": "patent US7744896", "about": "(ISTITUTO SUPERIORE DI SANITA, dated 2010)", "key": {"[1]": {"molecular_target": "T1, α5β1 integrin (fibronectin receptor) on cytokine-activated human umbilical vein endothelial (HUVE) cells (human, UniProt P08648 42-1049; P05556 21-798)", "T1 construct": "whole, on cells; also called FN receptor", "T1 sequence (P08648 42-1049, chain 1 of 2)": "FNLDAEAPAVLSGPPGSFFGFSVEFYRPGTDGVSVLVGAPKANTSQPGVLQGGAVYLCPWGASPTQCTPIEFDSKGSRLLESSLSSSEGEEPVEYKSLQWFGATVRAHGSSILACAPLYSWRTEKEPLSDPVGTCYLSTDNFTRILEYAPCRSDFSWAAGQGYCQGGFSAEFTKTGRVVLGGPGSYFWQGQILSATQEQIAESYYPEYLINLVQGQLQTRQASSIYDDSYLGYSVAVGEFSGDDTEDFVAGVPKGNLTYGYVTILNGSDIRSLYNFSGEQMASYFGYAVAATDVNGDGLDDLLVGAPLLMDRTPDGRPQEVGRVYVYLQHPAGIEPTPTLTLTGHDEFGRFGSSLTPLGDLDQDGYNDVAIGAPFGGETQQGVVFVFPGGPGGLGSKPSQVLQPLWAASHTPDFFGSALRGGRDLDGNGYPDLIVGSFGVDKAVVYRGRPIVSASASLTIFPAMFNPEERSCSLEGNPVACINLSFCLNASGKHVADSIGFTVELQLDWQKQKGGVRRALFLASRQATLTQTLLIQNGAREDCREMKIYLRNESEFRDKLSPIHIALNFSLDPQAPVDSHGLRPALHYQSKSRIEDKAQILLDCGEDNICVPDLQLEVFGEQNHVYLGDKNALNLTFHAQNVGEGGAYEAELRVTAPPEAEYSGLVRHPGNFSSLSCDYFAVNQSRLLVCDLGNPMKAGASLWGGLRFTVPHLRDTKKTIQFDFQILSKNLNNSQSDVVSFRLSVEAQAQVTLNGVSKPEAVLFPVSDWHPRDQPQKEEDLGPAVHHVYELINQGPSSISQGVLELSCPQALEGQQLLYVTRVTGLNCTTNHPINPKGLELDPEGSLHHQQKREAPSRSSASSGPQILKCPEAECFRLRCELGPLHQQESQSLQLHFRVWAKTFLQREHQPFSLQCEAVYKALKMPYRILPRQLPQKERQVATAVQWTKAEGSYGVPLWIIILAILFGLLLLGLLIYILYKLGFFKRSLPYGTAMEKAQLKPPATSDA", "T1 sequence (P05556 21-798, chain 2 of 2)": "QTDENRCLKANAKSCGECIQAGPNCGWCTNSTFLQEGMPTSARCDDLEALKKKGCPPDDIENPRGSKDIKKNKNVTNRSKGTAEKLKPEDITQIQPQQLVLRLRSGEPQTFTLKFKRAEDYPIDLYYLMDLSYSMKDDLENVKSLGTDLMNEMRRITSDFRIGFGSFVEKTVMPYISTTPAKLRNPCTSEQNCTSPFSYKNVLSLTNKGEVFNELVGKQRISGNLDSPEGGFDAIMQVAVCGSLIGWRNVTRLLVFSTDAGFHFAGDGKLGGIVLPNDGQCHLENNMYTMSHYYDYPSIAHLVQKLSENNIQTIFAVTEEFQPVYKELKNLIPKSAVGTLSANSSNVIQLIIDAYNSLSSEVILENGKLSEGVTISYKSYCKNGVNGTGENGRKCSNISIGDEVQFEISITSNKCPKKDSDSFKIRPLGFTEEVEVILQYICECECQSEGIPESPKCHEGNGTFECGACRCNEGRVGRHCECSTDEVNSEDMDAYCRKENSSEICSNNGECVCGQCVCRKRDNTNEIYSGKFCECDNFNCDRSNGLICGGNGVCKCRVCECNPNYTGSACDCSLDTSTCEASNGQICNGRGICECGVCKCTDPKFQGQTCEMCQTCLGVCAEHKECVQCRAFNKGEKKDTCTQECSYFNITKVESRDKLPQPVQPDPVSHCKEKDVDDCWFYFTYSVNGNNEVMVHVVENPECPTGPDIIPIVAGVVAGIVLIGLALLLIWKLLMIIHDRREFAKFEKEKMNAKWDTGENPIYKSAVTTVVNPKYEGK", "test": "conclusion of the uptake inhibition experiments on IC-activated HUVE cells"}, "[2]": {"molecular_target": "T2, αvβ3 integrin (vitronectin receptor) on cytokine-activated human umbilical vein endothelial (HUVE) cells (human, UniProt P06756 31-1048; P05106 27-788)", "T2 construct": "whole, on cells; also called VN receptor", "T2 sequence (P06756 31-1048, chain 1 of 2)": "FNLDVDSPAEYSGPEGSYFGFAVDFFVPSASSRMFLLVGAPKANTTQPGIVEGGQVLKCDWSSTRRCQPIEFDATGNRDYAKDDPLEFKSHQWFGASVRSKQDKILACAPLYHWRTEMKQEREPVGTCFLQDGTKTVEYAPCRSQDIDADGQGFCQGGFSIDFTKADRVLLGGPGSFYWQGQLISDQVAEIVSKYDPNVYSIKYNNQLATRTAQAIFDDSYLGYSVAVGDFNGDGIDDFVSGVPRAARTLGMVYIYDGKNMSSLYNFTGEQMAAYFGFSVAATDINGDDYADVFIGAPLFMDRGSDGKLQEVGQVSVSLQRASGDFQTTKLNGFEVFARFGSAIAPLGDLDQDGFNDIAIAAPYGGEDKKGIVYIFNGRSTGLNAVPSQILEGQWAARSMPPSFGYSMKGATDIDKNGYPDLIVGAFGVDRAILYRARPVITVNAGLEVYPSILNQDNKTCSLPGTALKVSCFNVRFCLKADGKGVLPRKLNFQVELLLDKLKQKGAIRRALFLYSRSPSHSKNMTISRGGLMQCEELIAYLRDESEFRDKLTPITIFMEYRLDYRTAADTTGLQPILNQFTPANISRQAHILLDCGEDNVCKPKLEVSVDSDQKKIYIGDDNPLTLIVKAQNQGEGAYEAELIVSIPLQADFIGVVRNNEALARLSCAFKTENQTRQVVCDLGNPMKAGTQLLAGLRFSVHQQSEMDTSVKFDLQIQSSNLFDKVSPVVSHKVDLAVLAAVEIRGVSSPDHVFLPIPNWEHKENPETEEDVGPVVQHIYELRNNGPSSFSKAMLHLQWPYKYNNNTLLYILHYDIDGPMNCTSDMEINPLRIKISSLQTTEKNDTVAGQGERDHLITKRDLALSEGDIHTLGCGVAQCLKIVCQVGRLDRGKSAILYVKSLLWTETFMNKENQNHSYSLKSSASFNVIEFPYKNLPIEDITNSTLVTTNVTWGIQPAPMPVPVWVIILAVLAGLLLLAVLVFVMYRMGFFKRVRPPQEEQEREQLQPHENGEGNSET", "T2 sequence (P05106 27-788, chain 2 of 2)": "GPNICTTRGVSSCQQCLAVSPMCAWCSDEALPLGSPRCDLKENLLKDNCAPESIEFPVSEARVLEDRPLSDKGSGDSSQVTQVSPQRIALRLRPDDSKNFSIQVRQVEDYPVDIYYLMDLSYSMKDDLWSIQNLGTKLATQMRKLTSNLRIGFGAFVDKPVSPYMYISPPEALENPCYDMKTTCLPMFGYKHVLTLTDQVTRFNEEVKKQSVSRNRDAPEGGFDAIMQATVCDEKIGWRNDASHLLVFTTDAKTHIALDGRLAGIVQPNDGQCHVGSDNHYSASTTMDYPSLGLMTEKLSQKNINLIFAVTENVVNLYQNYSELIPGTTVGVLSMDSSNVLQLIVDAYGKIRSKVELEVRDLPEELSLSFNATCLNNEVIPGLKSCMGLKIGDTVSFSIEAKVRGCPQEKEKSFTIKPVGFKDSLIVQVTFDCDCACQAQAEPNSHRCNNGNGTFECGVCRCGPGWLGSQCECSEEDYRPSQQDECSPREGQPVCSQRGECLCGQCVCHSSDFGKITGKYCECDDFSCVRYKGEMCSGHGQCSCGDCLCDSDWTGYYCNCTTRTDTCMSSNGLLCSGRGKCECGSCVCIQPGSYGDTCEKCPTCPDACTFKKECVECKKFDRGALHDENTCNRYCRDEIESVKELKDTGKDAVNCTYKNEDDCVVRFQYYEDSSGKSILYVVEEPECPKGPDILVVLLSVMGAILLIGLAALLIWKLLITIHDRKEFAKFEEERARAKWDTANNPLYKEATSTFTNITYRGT", "test": "conclusion of the uptake inhibition experiments on IC-activated HUVE cells"}}}
{"binder": "rhodaminated Tat protein (other, rhodaminated (TRITC) at lysine residues, Recombinant Tat labelled with TRITC; also called rhodaminated biologically-active Tat protein) MEPVDPRLEPWKHPGSQPKTACTNCYCKKCCFHCQVCFITKALGISYGRKKRRQRRRPPQGSQTHQVSLSKQPTSQSRGDPTGPKE", "values": [{"measurement": "binding result", "setting": "[1]", "result": "binds"}, {"measurement": "binding result", "setting": "[2]", "result": "binds"}]}
